Source: article PMC10842940, “Establishment of dsDNA-dsDNA interactions by the condensin complex” (Molecular cell, 2023)

Experiments:
[1] = molecular target: T1, Cut14^Smc2 (fission yeast condensin SMC subunit) (S. pombe, UniProt P41003 1-1172); assay: cross-linking; sulfo-SDA cross-link mass spectrometry (CLMS) of the purified five-subunit condensin complex with equimolar 124 bp linear dsDNA, no nucleotide (initial state); CL buffer, 30°C 30 min, UV 365 nm on ice; 1% FDR at residue-pair level; conditions: both partners purified
T1 construct: Cut14 (Smc2), S. pombe condensin SMC subunit; cDNA cloned into an S. cerevisiae expression vector; The Pk tag is used for the condensin immunoprecipitation in the DNA assays; also called Cut14-3xPk; source: S. cerevisiae (w303, pep4 deleted), co-overexpressed with the other four condensin subunits from GAL1-10 promoters; in cell extract, and purified as the complex (IgG-agarose, 3C protease …)
T1 sequence (looked up): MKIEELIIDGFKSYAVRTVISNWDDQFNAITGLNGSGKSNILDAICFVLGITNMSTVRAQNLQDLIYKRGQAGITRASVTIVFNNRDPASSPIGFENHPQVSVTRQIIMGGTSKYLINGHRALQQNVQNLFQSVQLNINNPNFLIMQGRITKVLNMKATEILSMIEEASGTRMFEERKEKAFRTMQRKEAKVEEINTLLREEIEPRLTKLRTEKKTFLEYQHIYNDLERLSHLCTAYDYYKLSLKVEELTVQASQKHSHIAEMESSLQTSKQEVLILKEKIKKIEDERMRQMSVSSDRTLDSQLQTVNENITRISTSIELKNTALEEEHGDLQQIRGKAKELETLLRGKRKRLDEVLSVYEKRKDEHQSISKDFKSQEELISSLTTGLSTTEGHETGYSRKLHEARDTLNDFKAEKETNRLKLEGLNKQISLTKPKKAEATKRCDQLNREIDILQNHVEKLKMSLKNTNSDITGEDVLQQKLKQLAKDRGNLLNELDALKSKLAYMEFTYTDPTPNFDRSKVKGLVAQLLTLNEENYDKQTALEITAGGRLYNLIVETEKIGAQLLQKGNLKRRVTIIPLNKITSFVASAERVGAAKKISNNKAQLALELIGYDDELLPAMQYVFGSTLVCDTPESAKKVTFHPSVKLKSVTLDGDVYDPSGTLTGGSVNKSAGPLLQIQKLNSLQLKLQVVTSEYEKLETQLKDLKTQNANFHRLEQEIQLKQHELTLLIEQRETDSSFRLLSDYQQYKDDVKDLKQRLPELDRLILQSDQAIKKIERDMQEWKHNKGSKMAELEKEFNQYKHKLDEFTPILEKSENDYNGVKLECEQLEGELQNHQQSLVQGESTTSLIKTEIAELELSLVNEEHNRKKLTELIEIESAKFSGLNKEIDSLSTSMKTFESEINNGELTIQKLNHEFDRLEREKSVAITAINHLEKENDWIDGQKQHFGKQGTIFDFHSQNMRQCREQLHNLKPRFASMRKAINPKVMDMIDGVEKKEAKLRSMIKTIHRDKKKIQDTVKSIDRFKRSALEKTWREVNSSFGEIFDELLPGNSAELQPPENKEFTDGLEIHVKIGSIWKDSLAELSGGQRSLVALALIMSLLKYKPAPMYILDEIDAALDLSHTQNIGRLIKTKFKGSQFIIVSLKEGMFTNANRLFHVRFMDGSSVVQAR

[2] = molecular target: T2, Cnd1^Ycs4 (fission yeast condensin HEAT-repeat subunit) (S. pombe, UniProt O94679 1-1158); assay: cross-linking; sulfo-SDA cross-link mass spectrometry (CLMS) of the purified five-subunit condensin complex with equimolar 124 bp linear dsDNA and 0.5 mM ADP·BeF3 (DNA-gripping state); CL buffer, 30°C 30 min, UV 365 nm on ice; 1% FDR at residue-pair level; conditions: both partners purified
T2 construct: Cnd1 (Ycs4), S. pombe condensin HEAT-repeat subunit; cDNA cloned into an S. cerevisiae expression vector; source: S. cerevisiae (w303, pep4 deleted), co-overexpressed with the other four condensin subunits from GAL1-10 promoters; in cell extract, and purified as the complex (IgG-agarose, 3C protease elution, heparin, Superose 6)
T2 sequence (looked up): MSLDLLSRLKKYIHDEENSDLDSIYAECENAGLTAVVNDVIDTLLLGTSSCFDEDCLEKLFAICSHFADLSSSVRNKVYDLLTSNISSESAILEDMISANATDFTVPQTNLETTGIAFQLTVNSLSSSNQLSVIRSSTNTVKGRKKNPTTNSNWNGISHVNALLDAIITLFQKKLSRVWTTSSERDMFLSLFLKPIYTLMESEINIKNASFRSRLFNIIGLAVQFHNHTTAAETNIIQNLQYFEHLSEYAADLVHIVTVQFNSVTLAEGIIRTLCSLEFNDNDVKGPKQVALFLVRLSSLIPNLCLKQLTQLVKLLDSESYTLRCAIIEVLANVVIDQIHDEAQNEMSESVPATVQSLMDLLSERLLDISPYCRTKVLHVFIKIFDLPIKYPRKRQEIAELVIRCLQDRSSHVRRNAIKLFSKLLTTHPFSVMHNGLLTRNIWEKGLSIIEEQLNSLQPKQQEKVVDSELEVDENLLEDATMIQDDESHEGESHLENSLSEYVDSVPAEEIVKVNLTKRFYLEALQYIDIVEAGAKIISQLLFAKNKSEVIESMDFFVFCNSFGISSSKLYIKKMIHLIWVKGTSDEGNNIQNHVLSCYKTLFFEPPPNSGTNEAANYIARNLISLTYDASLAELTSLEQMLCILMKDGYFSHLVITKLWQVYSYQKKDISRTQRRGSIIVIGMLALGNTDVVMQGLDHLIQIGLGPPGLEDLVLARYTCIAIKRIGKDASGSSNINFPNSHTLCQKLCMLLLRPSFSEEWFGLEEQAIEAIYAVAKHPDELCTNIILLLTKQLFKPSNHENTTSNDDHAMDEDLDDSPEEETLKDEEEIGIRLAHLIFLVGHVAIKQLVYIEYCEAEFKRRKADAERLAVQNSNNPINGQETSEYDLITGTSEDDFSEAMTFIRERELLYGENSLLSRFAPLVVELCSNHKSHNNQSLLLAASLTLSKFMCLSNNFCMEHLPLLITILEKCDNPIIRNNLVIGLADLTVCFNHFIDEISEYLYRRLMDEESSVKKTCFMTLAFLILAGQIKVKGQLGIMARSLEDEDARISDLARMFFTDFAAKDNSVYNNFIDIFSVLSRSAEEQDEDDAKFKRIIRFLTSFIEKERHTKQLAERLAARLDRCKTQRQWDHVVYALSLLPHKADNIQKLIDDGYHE

- binding result [1]: binds
- binding result [2]: binds
B1: Cnd3^Ycg1 (fission yeast condensin HEAT-repeat subunit) (natural protein, S. pombe, UniProt Q10429 1-875, looked up)
chain: MSCIQIISSSQTSIAGHRKLCNKLFTLRTQEGFETDILRALNIILTVKKGNSNADRVLRFLVTFVNYLQQKDPEIDIVQPILKHILRGLDAKDKTVRYRCCQIIARVVNCVKEIDDDLYNTLKEKLLSRVLDRESIVRLEAVVALSRLQEDTGDEENDVRNILLFLLQNDPSSEVRRSVLLNIEVSNSTLPFILERARDVDAANRKCVYARVLPKIGDFRYLSIKKRVRILKWGLNDRDESVEKAAADMLAYQWIENADNNLLELLERLDVSNNSDVAVLAIKKFFDVRVDSLSQLEFPEQFWLELTAESSLLARTFNEICIEKNYTDLLDKMPEVVQLTYYIERQYVSLRDKSSYDESCFIIEQLLYIGLSQDMVDEIGRRKLLKSLTNSLSTMALPDSLISLHIELLRKLCSSENDFCSLLVEIITEVFEQGHSQNQTEEQGNSNAPELNKNDYEGEEITVSQKSPSPSLPPNELNEPEPDDMDGYKEAFNELRCLSYVQCLFENITSSLNENLYMVDMLKTLIIPAVRSHDLPIREKGLECLSLVCLLNADLAFENVPLYLHCYEKGSVVLKCTAIRTLTDMLIQHGKAKFTEYEDAISSILFEALGEFENAELQTLGAEAIAKLLVILHYRDELFLKPLIIQYFEPNTVDNHALRQVLGYFFPVYAFGAHENQWRIATIFCDALLSLLEIYRDLDEDDVQLSIGHIAQQMLDWTDNEKLYERKTQTGDDYIALNHNVHLHLANMIFESLPNASEGKERKFMISLLGKLKIPTDLPSSDYQRTKRKLETYESHGFTMDSTSLSILAKFERMLLQNEEARSKFEETEEERLMENAEENEHAGAEAISGEIIPDTVEANMEDEEEVYVKQEEDL
notes: Cnd3 (Ycg1), S. pombe condensin HEAT-repeat subunit; cDNA cloned into an S. cerevisiae expression vector; also called Cnd3^CAP-G; source: S. cerevisiae (w303, pep4 deleted), co-overexpressed with the other four condensin subunits from GAL1-10 promoters; in cell extract, and purified as the complex (IgG-agarose, 3C protease elution, heparin, Superose 6)
